This is an account of results in publication PMC9018708.

Experiment [1] has as its target Heparin Binding EGF Like Growth Factor (DT receptor) on Vero cells (African green monkey (endogenous in Vero)).
Experiment [2] addresses human Heparin Binding EGF Like Growth Factor, overexpressed on ARN8 HBEGFKO cells (human) (UniProt Q99075).
Experiment [3] has as its target Heparin Binding EGF Like Growth Factor, endogenous on ARN8 cells (human (endogenous in ARN8)) (UniProt Q99075).
The target in experiment [4] is Heparin Binding EGF Like Growth Factor (DT receptor) on Vero cells (African green monkey (endogenous in Vero)). The source holds these as a separate data set.

Consider “DT(PTR), DT chimera with the R domain of Peptono Toxin”, for which the EC50 of toxicity toward Vero cells (dose titration) in experiment [1] was determined as 7 nM. Besides, the sensitivity (EC50), dose titration on +HBEGF ARN8 cells in experiment [2] was found to be 50 nM. In addition, in experiment [3], the sensitivity (EC50), dose titration on WT ARN8 cells (HBEGFKO cells: 55 nM) was 25 nM.
As to “DT(ATR), DT chimera with the R domain of Albireti Toxin”, in experiment [1], the EC50 of toxicity toward Vero cells (dose titration) was 12 nM. For the same substance, in experiment [2], the sensitivity (EC50), dose titration on +HBEGF ARN8 cells stood at 608 nM. In addition, the sensitivity (EC50), dose titration on WT ARN8 cells (HBEGFKO cells: 245 nM) in experiment [3] amounted to 169 nM.
With “Diphtheria toxin (from UniProt P00588 33-567) (natural protein)”, the DT sensitivity (EC50), dose titration on +HBEGF ARN8 cells in experiment [2] turned out to be 0.00043 nM. Besides, the DT sensitivity (EC50), dose titration on WT ARN8 cells (HBEGFKO cells: N/A) in experiment [3] was determined as 0.026 nM. The same substance returned an EC50 of inhibition of protein synthesis (nLucP assay) in Vero cells, overnight (18 h) incubation in experiment [4] of 0.00015 nM.
